Tests used:
[1] = target: T1, NCR1 as expressed on NK cells (human, UniProt O76036 22-304); assay: flow cytometry, Fab titration on peripheral blood NK cells (FIG. S6)
T1 construct: whole, on cells; Primary human peripheral blood NK cells; NKL cells stably transduced with NCR1 in the bispecific cytotoxicity assay; also called peripheral blood NK cells; NCR1+ NKL cells
Protocol: To evaluate the affinity of the selected antibodies for NK cells, we titrated the nine Fab clones on peripheral blood NK cells.
(§1) Titrations were performed on primary human NK cells or tetracycline induced overexpression cell lines as indicated. When tetracycline induced overexpression cell lines were used, cells were dosed with 10 μg/mL tetracycline for 2 days prior to staining. The starting concentration of each Fab or bispecific antibody was 1 μM, and serial 1:5 dilutions were performed. Antibodies were incubated with cells for 1 hr at 4° C., washed 2 times in 3% BSA in PBS pH 7.4, and stained for 30 min with an Alexafluor-647 conjugated goat anti-human IgG F(ab′)2 fragment (Jackson ImmunoResearch Laboratories) at a 1:50 dilution. After an additional 3 washes, cells were fixed and fluorescence was quantified using a CytoFLEX (Beckman Coulter). All flow cytometry data were analyzed using FlowJo software.

[2] = target: T2, NCR1 extracellular domain fused to a generic transmembrane domain, on tetracycline-inducible FlpIn cells (human, UniProt O76036 22-258); assay: flow cytometry, Fab on tetracycline-inducible cells over-expressing the ECD (FIG. S5)
T2 construct: extracellular domain; HEK293 FlpIn cells, expression on tetracycline addition; also called NCR1 over expression cell line; not shown: transmembrane domain of platelet-derived growth factor (so in the source) with a HA tag
T2 sequence (O76036 22-258): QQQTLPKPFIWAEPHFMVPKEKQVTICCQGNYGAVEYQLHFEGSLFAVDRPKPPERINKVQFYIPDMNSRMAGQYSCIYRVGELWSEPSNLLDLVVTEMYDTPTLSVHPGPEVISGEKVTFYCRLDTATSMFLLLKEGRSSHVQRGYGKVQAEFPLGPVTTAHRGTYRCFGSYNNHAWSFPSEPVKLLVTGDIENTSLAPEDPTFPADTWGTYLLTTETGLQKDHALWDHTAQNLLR
Protocol: (§2) To investigate the specificity of both activating and non-functional antibodies for their receptor targets, we developed a tetracycline-inducible cell line for each protein target—CD16, NCR1, NCR3, CD244, TNFRSF9, and TNFSF4. The ECDs of these proteins were fused to a generic transmembrane domain and were expressed upon tetracycline addition.
as §1

[3] = target: T3, CD244 extracellular domain fused to a generic transmembrane domain, on tetracycline-inducible FlpIn cells (UniProt Q9BZW8 22-229); assay: flow cytometry, Fab on tetracycline-inducible cell lines over-expressing each ECD (FIG. S5)
T3 construct: extracellular domain; not shown: transmembrane domain of platelet-derived growth factor (so in the source) with a HA tag
T3 sequence (looked up): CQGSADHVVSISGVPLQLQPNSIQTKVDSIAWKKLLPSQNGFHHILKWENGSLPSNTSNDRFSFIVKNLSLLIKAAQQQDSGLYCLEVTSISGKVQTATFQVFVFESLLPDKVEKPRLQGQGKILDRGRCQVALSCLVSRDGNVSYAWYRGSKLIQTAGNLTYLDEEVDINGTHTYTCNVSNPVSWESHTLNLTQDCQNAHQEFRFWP
Protocol: as §2, §1

[4] = target: T4, TNFSF4 extracellular domain fused to a generic transmembrane domain, on tetracycline-inducible FlpIn cells (UniProt P23510 51-183); assay: as above
T4 construct: extracellular domain; also called OX40L; not shown: transmembrane domain of platelet-derived growth factor (so in the source) with a HA tag
T4 sequence (looked up): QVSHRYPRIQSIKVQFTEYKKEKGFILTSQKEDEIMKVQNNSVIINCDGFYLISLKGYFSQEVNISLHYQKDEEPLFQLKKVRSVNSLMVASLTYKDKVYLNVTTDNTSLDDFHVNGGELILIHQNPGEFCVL
Protocol: as §2, §1

[5] = target: T5, NCR3 extracellular domain fused to a generic transmembrane domain, on tetracycline-inducible FlpIn cells (human, UniProt O14931 19-135); assay: as above
T5 construct: extracellular domain; HEK293 FlpIn cells, expression on tetracycline addition; also called NCR3 over expression cell line; not shown: transmembrane domain of platelet-derived growth factor (so in the source) with a HA tag
T5 sequence (looked up): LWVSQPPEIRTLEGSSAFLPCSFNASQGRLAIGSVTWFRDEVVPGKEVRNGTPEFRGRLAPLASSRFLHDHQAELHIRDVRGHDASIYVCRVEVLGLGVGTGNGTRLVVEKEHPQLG
Protocol: as §2, §1

[6] = target: T6, CD16 extracellular domain fused to a generic transmembrane domain, on tetracycline-inducible FlpIn cells (human, UniProt P08637 17-208); assay: as above
T6 construct: extracellular domain; HEK293 FlpIn cells, expression on tetracycline addition; also called CD16 over expression cell line; CD16A; not shown: transmembrane domain of platelet-derived growth factor (so in the source) with a HA tag
T6 sequence (P08637 17-208): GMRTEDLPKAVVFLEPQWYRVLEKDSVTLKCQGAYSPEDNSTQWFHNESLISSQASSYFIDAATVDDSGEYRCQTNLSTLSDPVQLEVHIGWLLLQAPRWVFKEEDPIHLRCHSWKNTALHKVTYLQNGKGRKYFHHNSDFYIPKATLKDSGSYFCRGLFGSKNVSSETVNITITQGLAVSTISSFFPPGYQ
Protocol: as §2, §1

[7] = target: T7, TNFRSF9 extracellular domain fused to a generic transmembrane domain, on tetracycline-inducible FlpIn cells (UniProt Q07011 24-186); assay: as above
T7 construct: extracellular domain; also called 4-1BB; not shown: transmembrane domain of platelet-derived growth factor (so in the source) with a HA tag
Protocol: as §2, §1

[8] = target: T8, NCR1 extracellular domain TEV-cleavable Fc-fusion, biotinylated (human, UniProt O76036 22-258, biotinylated (site not stated)); assay: Fab-phage selection and Fab-phage ELISA on biotinylated ECD Fc-fusion (antigen column of Table S1)
T8 construct: extracellular domain; Antigen of the phage selections and Fab-phage ELISAs; not shown: TEV cleavage site and Fc domain
T8 sequence (O76036 22-258): as the sequence (O76036 22-258) above
Protocol: To generate antibodies against these antigens, we expressed the extracellular domains (ECDs) of these proteins as TEV-cleavable Fc-fusions and performed Fab-phage display selections to enrich for high affinity antibody binders (FIG. S1), as previously described [Hornsby, M. et al., Mol Cell Proteomics. 14(10), 2833-2847 (2015)]. After each selection, Fab-phage ELISAs were performed to determine the relative affinity and selectivity of these binders for their antigen targets (FIG. S2).
TEV-cleavable Fc-fusion proteins were expressed and biotinylated in Expi293F cells using the standard expression protocol. Media were harvested after 4 days of expression and protein was purified by protein A affinity chromatography. Phage selections were performed according to previously established protocols1 with the Fab-phage Library E2. Non-specific binders were depleted from the library by incubating the phage pool with Fc-domain immobilized on streptavidin beads. Fab phage were selected using biotinylated Fc-fusions that were captured on streptavidin-coated magnetic beads, and were released through TEV elution. Each selection consists of four rounds. With each round, decreasing amounts of Fc-fusions (1 μM, 100 nM, 10 nM, and […]) were used. ELISAs were performed for 96 individual Fab-phage clones from the third or fourth rounds of selection to evaluate for affinity and selectivity.
ELISAs were performed as previously described1. In brief, Maxisorp plates were coated with 10 μg/mL of Neutravidin overnight at 4° C. Biotinylated target antigen (20 nM) was captured on the Neutravidin coated plates for 30 min, and then exposed to a 1:5 dilution of phage supernatants for 30 min. Bound phage were detected via a horseradish-peroxidase-conjugated anti-phage monoclonal antibody (GE Lifesciences).

T1 sequence (O76036 22-304): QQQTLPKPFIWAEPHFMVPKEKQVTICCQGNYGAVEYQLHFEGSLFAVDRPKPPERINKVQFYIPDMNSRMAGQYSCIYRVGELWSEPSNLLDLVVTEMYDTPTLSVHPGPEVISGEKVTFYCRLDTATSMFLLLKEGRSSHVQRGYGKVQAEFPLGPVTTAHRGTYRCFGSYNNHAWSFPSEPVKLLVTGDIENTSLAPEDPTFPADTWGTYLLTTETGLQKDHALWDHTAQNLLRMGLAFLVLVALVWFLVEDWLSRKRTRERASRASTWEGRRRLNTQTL

- binding result [1]: binds
- binding result [2]: binds
- binding result [3]: no binding
- binding result [4]: no binding
- binding result [5]: no binding
- binding result [6]: no binding
- binding result [7]: no binding
- binding result [8]: binds
B1: NCR1.11 Fab (Fab)
heavy: EVQLVESGGGLVQPGGSLRLSCAASGFNVYYSYIHWVRQAPGKGLEWVASISSYYGSTYYADSVKGRFTISADTSKNTAYLQMNSLRAEDTAVYYCARSRYLQDYWSSWWVSWYGLDYWGQGTLVTVSSASTKGPSVFPLAPSSKSTSGGTAALGCLVKDYFPEPVTVSWNSGALTSGVHTFPAVLQSSGLYSLSSVVTVPSSSLGTQTYICNVNHKPSNTKVDKKVEPKSCDKTHT
light: DIQMTQSPSSLSASVGDRVTITCRASQSVSSAVAWYQQKPGKAPKLLIYSASSLYSGVPSRFSGSRSGTDFTLTISSLQPEDFATYYCQQSSSSLITFGQGTKVEIKRTVAAPSVFIFPPSDSQLKSGTASVVCLLNNFYPREAKVQWKVDNALQSGNSQESVTEQDSKDSTYSLSSTLTLSKADYEKHKVYACEVTHQGLSSPVTKSFNRGEC
notes: also called anti-NCR1 Fab #27

Source: patent US20240279331A1 (University of California, published 2024)
